Measurements as given in US20080194482A1, “Selective Apac2 Receptor Peptide Agonists” (priority 2005, published 2008).
Numbered stars: 1 amine (or outer) side, 2 acyl side, 3 side chain; on linkers, the order of the positions; unused ones are H or OH. Square brackets hold non-standard residues; d marks the D form. Ends that are not written are not given here. * marks the point of attachment. Tyr(OMe) = O-methyl-tyrosine, COc1ccc(C[C@H](N[*:1])C(=O)[*:2])cc1; Orn = NCCC[C@H](N)C(=O)O; Hexanoyl = CCCCCC(=O)*; Aib = CC(C)(N)C(=O)O

B1: VPAC2 receptor peptide agonist P343 (peptide)
peptide: HSDAVFTDNYTXLRXQVAAXKYLQSIKNKRYGGPSSGAPPPS
modifications: N-terminal hexanoyl (C6); hR (homoarginine) at 12; Aib at 15 and 20
B2: VPAC2 receptor peptide agonist P406 (peptide)
peptide: Hexanoyl-HSDAVFTDQYTR[Aib]R[Aib]QVAA[Aib]KYLQSIK[Aib]KGGPSSGAPPPS
B3: VPAC2 receptor peptide agonist P408 (peptide)
peptide: Hexanoyl-HSDAVFTDQ[Tyr(OMe)]TR[Aib]R[Aib]QLAA[Aib]KYLQSIK[Aib]KGGPSSGAPPPS
B4: VPAC2 receptor peptide agonist P418 (peptide)
peptide: HSDAVFTEQYTXLRXQLAAXXYLQSIXXGGPSSGAPPPS
modifications: N-terminal hexanoyl (C6); Tyr(OMe) at 10 and 22; Orn at 12, 21, 27 and 28; Aib at 15 and 20
B5: VPAC2 receptor peptide agonist P393 (peptide)
peptide: HSEAVFTEQYTXLRXQLAAXXYLQSIXXGGPSSGAPPPS
modifications: N-terminal hexanoyl (C6); Tyr(OMe) at 10; Orn at 12, 21, 27 and 28; Aib at 15 and 20
B6: VPAC2 receptor peptide agonist P397 (peptide)
peptide: HSDAVFTDNYTXLRXQVAAXXYLQSIXXGGPSSGAPPPS
modifications: N-terminal hexanoyl (C6); Orn at 12, 21, 27 and 28; Aib at 15 and 20
B7: VPAC2 receptor peptide agonist P357 (peptide)
peptide: HSDAVFTDNYTRLRXQVAAXKYLQSIKXXGGPSSGAPPPS
modifications: N-terminal hexanoyl (C6); Aib at 15, 20 and 28; Orn at 29
B8: VPAC2 receptor peptide agonist P392 (peptide)
peptide: Hexanoyl-HSDAVFTDSYT[Orn]LR[Aib]QVAA[Aib]KYLQSI[Orn]N[Orn]GGPSSGAPPPS
B9: VPAC2 receptor peptide agonist P362 (peptide)
peptide: Hexanoyl-HSEAVFTENYT[Orn]LR[Aib]QVAA[Aib]KYLQSI[Orn]N[Orn]GGPSSGAPPPS
B10: VPAC2 receptor peptide agonist P363 (peptide)
peptide: Hexanoyl-HSDAVFTDQYT[Orn]LR[Aib]QVAA[Aib]KYLQSI[Orn]Q[Orn]GGPSSGAPPPS
B11: VPAC2 receptor peptide agonist P382 (peptide)
peptide: HSDAVFTDNYTXLRXQVAAXKYLQSSXNXGGPSSGAPPPS
modifications: N-terminal hexanoyl (C6); Orn at 12, 27 and 29; Aib at 15 and 20
B12: VPAC2 receptor peptide agonist P383 (peptide)
peptide: HSDAVFTDNYTXLRXQVAAXKYLSSIXNXGGPSSGAPPPS
modifications: N-terminal hexanoyl (C6); Orn at 12, 27 and 29; Aib at 15 and 20
B13: VPAC2 receptor peptide agonist P384 (peptide)
peptide: HSDAVFTDNYTXLRXQVAAXKYSQSIXNXGGPSSGAPPPS
modifications: N-terminal hexanoyl (C6); Orn at 12, 27 and 29; Aib at 15 and 20
B14: VPAC2 receptor peptide agonist P385 (peptide)
peptide: HSDAVFTDNYTXLRXQVAAXKSLQSIXNXGGPSSGAPPPS
modifications: N-terminal hexanoyl (C6); Orn at 12, 27 and 29; Aib at 15 and 20
B15: VPAC2 receptor peptide agonist P386 (peptide)
peptide: HSDAVFTDNYTXLRXQVAAXSYLQSIXNXGGPSSGAPPPS
modifications: N-terminal hexanoyl (C6); Orn at 12, 27 and 29; Aib at 15 and 20
B16: VPAC2 receptor peptide agonist P387 (peptide)
peptide: HSDAVFTDNYTXLRXQVASXKYLQSIXNXGGPSSGAPPPS
modifications: N-terminal hexanoyl (C6); Orn at 12, 27 and 29; Aib at 15 and 20
B17: VPAC2 receptor peptide agonist P388 (peptide)
peptide: HSDAVFTDNYTXLRXQVSAXKYLQSIXNXGGPSSGAPPPS
modifications: N-terminal hexanoyl (C6); Orn at 12, 27 and 29; Aib at 15 and 20
B18: VPAC2 receptor peptide agonist P389 (peptide)
peptide: HSDAVFTDNYTXLRXQSAAXKYLQSIXNXGGPSSGAPPPS
modifications: N-terminal hexanoyl (C6); Orn at 12, 27 and 29; Aib at 15 and 20
B19: VPAC2 receptor peptide agonist P391 (peptide)
peptide: Hexanoyl-HSDAVFTDNYT[Orn]SR[Aib]QVAA[Aib]KYLQSI[Orn]N[Orn]GGPSSGAPPPS
B20: VPAC2 receptor peptide agonist P368 (peptide)
peptide: Hexanoyl-HSDAVFTDNYTQLR[Aib]QVAA[Aib]KYLQSI[Orn]N[Orn]GGPSSGAPPPS
B21: VPAC2 receptor peptide agonist P369 (peptide)
peptide: Hexanoyl-HSDAVFTDNYTFLR[Aib]QVAA[Aib]KYLQSI[Orn]N[Orn]GGPSSGAPPPS
B22: VPAC2 receptor peptide agonist P371 (peptide)
peptide: Hexanoyl-HSDAVFTDNYT[Orn]LLAKLALQKYLQSI[Orn]N[Orn]GGPSSGAPPPS

Legend:
human VPAC2 receptor [1] = molecular target: T1, human VPAC2 receptor (human, UniProt P41587 24-438); experiment: cell-based or functional assay
T1 sequence (looked up): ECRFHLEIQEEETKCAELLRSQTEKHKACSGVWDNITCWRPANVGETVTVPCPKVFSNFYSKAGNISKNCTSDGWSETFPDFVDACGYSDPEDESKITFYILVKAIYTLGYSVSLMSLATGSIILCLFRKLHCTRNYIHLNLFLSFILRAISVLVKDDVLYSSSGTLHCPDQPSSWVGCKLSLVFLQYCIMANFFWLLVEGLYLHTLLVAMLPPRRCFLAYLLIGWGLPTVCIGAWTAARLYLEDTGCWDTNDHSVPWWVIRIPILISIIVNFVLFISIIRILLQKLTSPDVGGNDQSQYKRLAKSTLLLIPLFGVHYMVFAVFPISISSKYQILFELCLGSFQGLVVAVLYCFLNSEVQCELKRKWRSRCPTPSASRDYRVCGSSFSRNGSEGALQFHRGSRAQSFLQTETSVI

rat VPAC2 receptor = molecular target: T2, rat VPAC2 receptor (rat, UniProt P35000 23-437); experiment: cell-based or functional assay
T2 sequence (looked up): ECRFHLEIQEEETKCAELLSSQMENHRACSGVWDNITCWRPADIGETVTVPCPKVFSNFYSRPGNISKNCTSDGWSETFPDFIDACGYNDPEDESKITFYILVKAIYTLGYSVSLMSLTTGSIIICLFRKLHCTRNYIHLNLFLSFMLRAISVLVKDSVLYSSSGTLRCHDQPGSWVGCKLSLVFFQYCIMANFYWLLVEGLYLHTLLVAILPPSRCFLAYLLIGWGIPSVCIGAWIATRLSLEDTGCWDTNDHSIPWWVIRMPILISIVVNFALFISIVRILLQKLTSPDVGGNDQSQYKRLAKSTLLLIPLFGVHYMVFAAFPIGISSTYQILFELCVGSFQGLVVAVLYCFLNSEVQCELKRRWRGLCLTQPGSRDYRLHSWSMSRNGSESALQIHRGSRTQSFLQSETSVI

rat VPAC1 receptor = molecular target: T3, rat VPAC1 receptor (rat, UniProt P30083 31-459); experiment: cell-based or functional assay
T3 sequence (looked up): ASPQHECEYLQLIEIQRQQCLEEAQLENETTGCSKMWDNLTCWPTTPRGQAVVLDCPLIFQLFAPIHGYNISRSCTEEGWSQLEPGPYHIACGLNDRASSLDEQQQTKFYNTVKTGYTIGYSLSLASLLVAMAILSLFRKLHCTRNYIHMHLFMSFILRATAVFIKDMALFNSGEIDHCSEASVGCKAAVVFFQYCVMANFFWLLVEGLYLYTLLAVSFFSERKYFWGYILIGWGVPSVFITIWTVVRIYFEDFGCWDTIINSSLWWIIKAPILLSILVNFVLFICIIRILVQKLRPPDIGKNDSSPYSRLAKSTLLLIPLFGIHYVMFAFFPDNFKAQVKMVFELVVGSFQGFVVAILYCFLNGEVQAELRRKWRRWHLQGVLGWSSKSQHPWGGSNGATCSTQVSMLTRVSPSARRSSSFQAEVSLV

human VPAC2 receptor [2] = molecular target: T1, human VPAC2 receptor; experiment: filter binding, human VPAC2 membranes, competition with 125I-VIP;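 further: assay plate incubated 1 h with shaking, then filtered, with filter-retained counts measured after adding scintillant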

Row | Binder | Human VPAC2 Receptor: Alpha Screen (EC50; nM), cAMP generation (human VPAC2 receptor [1]) [nM] | Rat VPAC2 Receptor: DiscoveRx (EC50; nM), cAMP generation (rat VPAC2 receptor) [nM] | Rat VPAC1 Receptor: DiscoveRx (EC50; nM), cAMP generation (rat VPAC1 receptor) [nM] | IC50 (human VPAC2 receptor [2]) [nM]
1 | B1 | 0.29 | 0.15 | 2.62 | 0.85
2 | B2 | 0.12 | 0.04 | – | 0.27
3 | B3 | 0.12 | 0.04 | 0.35 | 0.48
4 | B4 | 3.11 | 0.57 | 7.76 | 8.96
5 | B5 | 0.31 | 0.17 | 16 | 0.74
6 | B6 | 0.15 | – | – | 0.5
7 | B7 | 0.23 | 0.07 | 0.69 | 0.32
8 | B8 | 0.21 | 0.08 | 0.71 | 0.45
9 | B9 | 0.58 | 1.22 | 35.9 | 1.91
10 | B10 | 0.27 | 0.09 | 1.44 | 0.25
11 | B11 | 0.33 | 0.37 | 8.21 | 2.17
12 | B12 | 0.12 | 0.18 | 1.68 | 5.01
13 | B13 | 6.7 | 8.05 | > 600 | 22.2
14 | B14 | 23.9 | 28.8 | 96.8 | 99.2
15 | B15 | 0.65 | 0.28 | 4.34 | 5.92
16 | B16 | 0.47 | 0.4 | 20.4 | 1.39
17 | B17 | 2760 | 709 | > 2000 | 100
18 | B18 | 0.16 | 0.21 | 4.4 | 0.82
19 | B19 | 0.48 | 0.5 | 9.09 | 3.67
20 | B20 | 1.09 | 1.33 | 20.9 | 28.6
21 | B21 | 10.5 | 8.09 | 130 | 37.3
22 | B22 | 0.13 | – | – | 0.34
